This note sets out measurements from patent US20210301026A1 (ULTRAHUMAN TWELVE, published 2021).

Residue numbers refer to the chain shown, from its start. Numbers in names are those of the source. Like-named read-outs stand apart in the source and are kept apart here. A value given as a limit tells only on which side of the number the result lay.

The target in test [1] is T1, monomeric cynomolgus monkey CSF1R ectodomain protein (cynomolgus monkey, UniProt P07333 20-517 (human entry)).
T1 construct: also called monomeric cyno CSF1R; Cyno CSF1R
T1 chain: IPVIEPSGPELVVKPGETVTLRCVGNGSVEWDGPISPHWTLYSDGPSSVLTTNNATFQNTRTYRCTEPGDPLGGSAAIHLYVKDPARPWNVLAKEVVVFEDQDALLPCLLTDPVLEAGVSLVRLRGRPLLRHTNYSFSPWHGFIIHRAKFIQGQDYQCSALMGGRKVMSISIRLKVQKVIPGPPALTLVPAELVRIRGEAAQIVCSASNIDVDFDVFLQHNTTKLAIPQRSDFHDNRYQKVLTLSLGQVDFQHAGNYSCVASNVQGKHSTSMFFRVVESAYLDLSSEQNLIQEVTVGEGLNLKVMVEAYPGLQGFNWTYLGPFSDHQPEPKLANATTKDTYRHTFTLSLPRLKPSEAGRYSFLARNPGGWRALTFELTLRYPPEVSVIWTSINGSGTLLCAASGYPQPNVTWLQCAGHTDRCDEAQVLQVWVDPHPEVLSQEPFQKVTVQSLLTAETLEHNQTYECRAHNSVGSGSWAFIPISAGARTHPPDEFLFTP
Put plainly: SPR Biacore; KD on monomeric cyno CSF1R against KD of the same clone on monomeric human CSF1R as reference. The protocol:
(§1) Affinity (KD) of purified IgGs was determined via SPR with antigen in-solution on a Biacore 3000 (GE). A mouse anti-human antibody (CH1 specific) was immobilized on a CM5 Sensor Chip to a level of 2000 RU in acetate buffer at pH 4.5 using amine coupling following the Wizard instructions for two channels. One channel was used for background signal correction. The standard running buffer HBS-EP pH 7.4 was used. Regeneration was performed with a single injection of 10 μl of 10 mM Glycine at pH 1.5 at 20 μl/minute. IgG samples were injected for 2 minutes at 50 nM at 30 μl/min followed by and off-rate of 60 seconds. The monomeric ectodomain protein (human CSF1R or cynomolgus monkey CSF1R) was injected in two fold serial dilutions from 100 nM down to 3.1 nM, for 2 minutes at 30 μl/min followed by an off-rate of 300 seconds. The obtained sensorgrams were analysed using the Biacore 3000 evaluation (BIAevaluation) software. The KD was calculated by simultaneous fitting of the association and dissociation phases to a 1:1 Langmuir binding model.
A general note: Surface plasmon resonance follows binding to a sensor surface in real time, without labels.

The target of test [2] is T2, monomeric human CSF1R ectodomain protein (human, UniProt P07333 20-517).
T2 construct: also called biotinylated monomeric human CSF1R
Put plainly: SPR Biacore, IgG captured, monomeric CSF1R analyte. The protocol:
as §1
(§2) Biacore analyses of binding affinity were performed for all IgGs to solution-phase, monomeric human and cyno CSF1R proteins (Table 6). […] Affinity differentials of less than 3-fold between human and cyno target orthologs are highly beneficial in pre-clinical drug development analyses as they allow more accurate design and interpretation of e.g. monkey safety, PK and PD modelling experiments.

For test [3], the target named is T1, monomeric cynomolgus monkey CSF1R …. Description: SPR Biacore, IgG captured, monomeric CSF1R analyte. As to the method: as §1, §2
The target of test [4] is T2, monomeric human CSF1R ectodomain protein. Description: AlphaScreen competition with mu0301 IgG4(S228P) for biotinylated monomeric human CSF1R. As to the method:
The AlphaScreen assay (Perkin Elmer) was performed in a 25 μl final volume in 384-well white microtiter plates (Greiner). The reaction buffer contained 1×PBS pH 7.3 (Oxoid, Cat. nr. BR0014G) and 0.05% (v/v) Tween® 20 (Sigma, Cat. nr. P9416). Purified IgG samples were titrated in three fold serial dilutions starting at 500 nM final concentration and incubated with biotinylated human CSF1R for 20 minutes at room temperature. […] The emission of light was measured in the EnVision multilabel plate reader (Perkin Elmer) and analysed using the EnVision manager software. Values were reported as Counts Per Second (CPS) and corrected for crosstalk. The EC50 values were calculated using the […] in GraphPad Prism software (GraphPad Software, La Jolla, Calif.).
(In Alpha technology, singlet oxygen from a donor bead excites a nearby acceptor bead.)

The target in test [5] is T3, human CSF1R human Fc tagged recombinant protein (human, UniProt P07333 20-517).
T3 construct: also called human CSF1R-Fc
Put plainly: direct titration ELISA on coated human CSF1R-Fc, IgG4(S228P) format, OD 450 nm. The protocol:
(§3) Binding and cross-reactivity of the lead panel to the recombinant proteins was initially assessed by binding ELISA. The human CSF1R human Fc tagged recombinant protein and the cynomolgus monkey CSF1R human Fc tagged recombinant protein were coated to the surface of MaxiSorp™ flat-bottom 96 well plate at 1 μg/ml. The purified IgG samples were titrated in two fold serial dilutions starting from 500 nM to 0.008 nM and allowed to bind to the coated antigens. The Fabs were detected using mouse anti-c-myc antibody followed by donkey anti-mouse IgG conjugated to horseradish peroxidase. The IgGs were detected using the mouse anti-human IgG conjugated to horseradish peroxidase. Binding signals were visualized with 3,3′,5,5′-Tetramethylbenzidine Substrate Solution (TMB) and the absorbance measured at 450 nm.

Test [6] deals with T4, cynomolgus monkey CSF1R human Fc tagged recombinant protein (cynomolgus monkey, UniProt P07333 20-517 (human entry), limits assumed).
T4 construct: also called cyno CSF1R-Fc
T4 chain: T1 chain
Description: direct titration ELISA on coated cyno CSF1R-Fc, IgG4(S228P) format, OD 450 nm. As to the method:
as §3
For orientation: ELISA stands for enzyme-linked immunosorbent assay.

Test [7] concerns the target T3, human CSF1R human Fc tagged recombinant …. Put plainly: direct titration ELISA on coated human CSF1R-Fc, IgG4(S228P) format, OD 450 nm. As to the method:
as §3
The source holds these as a separate data set.

Test [8] deals with T4, cynomolgus monkey CSF1R human Fc tagged …. Put plainly: direct titration ELISA on coated cyno CSF1R-Fc, IgG4(S228P) format, OD 450 nm. The protocol: as §3
The next test addresses T5, human insulin (human, UniProt P01308 25-54; P01308 90-110, limits assumed).
T5 construct: Coated antigen of the polyreactivity ('PK-risk indicator') ELISA
Description: ELISA on human insulin (development risk, polyreactivity), binding score.

Test [9] has as its target T6, human CSF1R, membrane-presented on cells (human, UniProt P07333 20-972).
T6 construct: HEK-293 cells transiently transfected with human CSF1R (flow cytometry); the native receptor on primary human monocytes in the proliferation assay; also called human CSF1R+ HEK-293 cells; CSF1R on primary human CD14+ monocytes
Description: flow cytometry on HEK-293 cells expressing human CSF1R, MFI.

For test [10], the target named is T2, monomeric human CSF1R ectodomain protein. Description: SPR Biacore, IgG captured, monomeric CSF1R analyte. As to the method: as §1
This is another data set of the same source.

Test [11] addresses T1, monomeric cynomolgus monkey CSF1R …. Description: SPR Biacore, IgG captured, monomeric CSF1R analyte. The protocol: as §1

T5 sequence (P01308 25-54 limits assumed, chain 1 of 2): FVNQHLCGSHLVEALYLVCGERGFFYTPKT
T5 sequence (P01308 90-110 limits assumed, chain 2 of 2): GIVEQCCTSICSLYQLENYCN

B1: 29D10 (antibody, human IgG4, V domains shown)
VH: QVQLVQSGAEVKKPGSSVKVSCKASGYTFTSYYMIWVRQAPGQGLEWMGDINPYNGGANFAQKFQGRVTITADESTSTAYMELSSLRSEDTAVYYCAREGPYFSNLYVMDYWGQGTLVTVSS
VL: EIVLTQSPATLSLSPGERATLSCRASQSVSYEGENYLNWYQQKPGQAPRLLIYAASNRATGIPARFSGSGSGTDFTLTISSLEPEDFAVYYCQLSNEDLLTFGGGTKVEIK
notes: Library-derived clone, tested as human IgG4(S228P)/Ckappa IgG; framework residue limits counted on the grafts
B1 yielded a human/cyno affinity differential in [1] below 3 fold. Further, in test [2], the Kd (commonly the concentration at which binding is half-saturated) is 0.2 nM; the koff (usually a measure of how fast the partners let go of each other) was 0.00037 s⁻¹; the kon (in general, the rate constant with which the complex forms) came to 1.9e+06 M⁻¹ s⁻¹. For the same molecule, in test [3], binding was put at a Kd of 0.42 nM, the koff stood at 0.00022 s⁻¹ and the kon is 520000 M⁻¹ s⁻¹. Further, in [4], the IC50 (in general, the concentration at which inhibition is half-maximal) came out at 1.93 nM.

B2: MH9 (antibody, V domains shown)
VH: B1 VH with T30S, M34I, G57T, F60Y
VL: B1 VL with N38A, E97Q
notes: Designer clone, human IgG4(S228P)/Ckappa IgG
As to B2, the EC50 (read off the curve) – broadly, the concentration at which the effect is half-maximal – in test [5] is around 10 nM.

B3: 30C11 (antibody, human IgG4, V domains shown)
VH: B1 VH with Y32N, G57T, N59T, F60Y, G100D
VL: B1 VL with E34D, R58L, A59E, E97Q
notes: as for B1
Consider B3, for which the binding result in test [6] and in test [5] was “binds” each time.

B4: MH31 (antibody, human IgG4, V domains shown)
VH: B1 VH with T30S, Y32A, F60Y, Q114R
VL: B1 VL with L50A, L51A, L82P
notes: Deimmunized MH5 derivative, human IgG4(S228P)/Ckappa IgG
B4: the binding result in [7] is on record as “binds”; in test [8] it was “binds”; in the test with human insulin, “no binding”.

B5: 29H09 (antibody, human IgG4, V domains shown)
VH: B1 VH with F60Y
VL: B1 VL
notes: as for B1
In turn, B5 showed a human/cyno affinity differential in test [1] below 3 fold. In addition, in [2], the Kd came out at 0.19 nM, the koff worked out at 0.00034 s⁻¹ and the kon was found to be 1.8e+06 M⁻¹ s⁻¹. Moreover, in [3], the Kd worked out at 0.42 nM, the koff amounted to 0.00023 s⁻¹ and the kon is 550000 M⁻¹ s⁻¹. In test [4], this molecule displayed an IC50 of 2.16 nM.

B6: MH33 (antibody, human IgG4, V domains shown)
VH: B1 VH with T30S, Y32A, F60Y, Q114R
VL: B1 VL with L82P
notes: as for B4
Regarding B6, the “EC50 (read off the curve)” value in test [9] is around 0.7 nM. In addition, in test [10], the Kd is 1.09 nM, the koff worked out at 0.00144 s⁻¹ and the kon was determined as 1.32e+06 M⁻¹ s⁻¹. In addition, in [11], the Kd is 1.74 nM, the dissociation rate constant (koff) came to 0.00115 s⁻¹ and the kon worked out at 660000 M⁻¹ s⁻¹. Moreover, the binding result with human insulin was “no binding”.

B7: 29E11 (antibody, human IgG4, V domains shown)
VH: B1 VH with G57T, N59T, F60Y
VL: B1 VL with E32D, N38A
notes: as for B1
With B7, the binding result in [6] and in [5] was “binds” in each case.

B8: 30E06 (antibody, human IgG4, V domains shown)
VH: B1 VH with A58T, N59T, F60Y
VL: B1 VL with N38A, R58L
notes: Library-derived clone; tested as human IgG4(S228P) / human Ckappa IgG; also called 30E6; mAb-3
In test [1], B8 displayed a human/cyno affinity differential below 3 fold. In [2], this molecule had a Kd of 0.11 nM, a koff of 0.00019 s⁻¹ and a kon of 1.9e+06 M⁻¹ s⁻¹. In test [3], this molecule gave a Kd of 0.25 nM, a koff of 0.00014 s⁻¹ and a kon of 570000 M⁻¹ s⁻¹. Moreover, the IC50 in [4] worked out at 1.53 nM.

B9: MH13 (antibody, human IgG4, V domains shown)
VH: B1 VH with T30S, Y32N, F60Y
VL: B1 VL with L82P
notes: as for B4
Take B9: the “EC50 (read off the curve)” value in test [9] was around 1 nM. In test [10], the Kd amounted to 0.397 nM, the “fold of the affinity of hu0301” value was at most 2 fold, the koff was determined as 0.000673 s⁻¹ and the kon stood at 1.69e+06 M⁻¹ s⁻¹. Moreover, in [11], the Kd turned out to be 0.723 nM, the “fold of the affinity of hu0301” value was at most 2 fold, the koff was 0.000598 s⁻¹ and the kon was determined as 827000 M⁻¹ s⁻¹. Besides, the binding result in the test with human insulin is given as “no binding”.

B10: murine anti-CSF1R antibody 0301 (mu0301), v-domains in human IgG4(S228P) format (antibody, V domains shown)
VH: EVQLQQSGPELVRPGASVKMSCKASGYTFTDNYMIWVKQSHGKSLEWIGDINPYNGGTTFNQKFKGKATLTVEKSSSTAYMQLNSLTSEDSAVYYCARESPYFSNLYVMDYWGQGTSVTVSS
VL: NIVLTQSPASLAVSLGQRATISCKASQSVDYDGDNYMNWYQQKPGQPPKLLIYAASNLESGIPARFSGSGSGTDFTLNIHPVEEEDAATYYCHLSNEDLSTFGGGTKLEIK
With B10, the “EC50 (read off the curve)” value in test [9] is around 1 nM; in test [7] it was around 0.1 nM; in [8], around 0.2 nM; in [5], around 0.1 nM. The Kd in test [10] was determined as 0.024 nM; in test [11] it was 0.1 nM; in test [2], 0.024 nM; in test [3], 0.1 nM. For the same molecule, the koff in test [10] worked out at 6.9e-05 s⁻¹; in test [11], 7.4e-05 s⁻¹; in [2], 6.9e-05 s⁻¹; in test [3] it was 7.4e-05 s⁻¹. In addition, the kon came out at 2.9e+06 M⁻¹ s⁻¹ in test [10], 740000 M⁻¹ s⁻¹ in test [11], 2.9e+06 M⁻¹ s⁻¹ in test [2] and 740000 M⁻¹ s⁻¹ in test [3]. Moreover, the binding result in the test with human insulin is “no binding”. Also, in test [4], the IC50 was found to be 1.29 nM.
